One block for each binder: values may come before it.
What was measured:
[1] = target: T1, human PD-L1 (human, UniProt Q9NZQ7 19-238, limits assumed); test: ELISA of transient expression product; the sheet names no antigen and shows one curve per antibody; format not stated for this figure, read as the PD-L1/CD47 bridging ELISA of Example 3
T1 construct: also called hPD-L1

[2] = target: T2, human CD47 (human, UniProt Q08722 19-139, limits assumed); test: as above
T2 construct: also called hCD47

[3] = target: T3, Human CD47-His (constructed by GeneScience) (human, UniProt Q08722 19-139); test: bridging ELISA of Example 3: PD-L1-mFc coated, purified antibody titrated, CD47-His as second antigen; paragraph 132 prints the value without a unit, the unit is from the sheet's axis Antibody(ug/ml)
T3 construct: also called hCD47
Description: (§1) 1. Coating the first antigen: Human PD-L1-mFc (constructed by GeneScience, SEQ ID NO: 22) was diluted with PBS to 1 μg/mL, and then added to a 96-well microtiter plate at 50 μL per well and incubated overnight at 4° C.
(§2) 4. Adding the second antigen: Human CD47-His (constructed by GeneScience, SEQ ID NO: 23) was diluted with PBS to 10 μg/mL, and then added to the 96-well microtiter plate at 50 μL per well and incubated at 25° C. for 1 hour.
(§3) 8. Detection: After terminating the reaction, the microtiter plate was immediately put into the microplate reader. The OD value at 450 nm was measured, and the original data was saved for sorting.

[4] = target: Human PD-L1-mFc (constructed by GeneScience) (human); test: as above
Description: as §1, §2, §3

[5] = target: T1, human PD-L1; test: ELISA of transient expression product; no antigen named on the sheet; PD-L1 Ab and CD47 Ab are both flat, so read as the PD-L1/CD47 bridging ELISA of Example 3; no unit beside the EC50, unit taken from the axis Antibody(ug/ml)
[6] = target: T2, human CD47; test: as above
[7] = target: T3, Human CD47-His (constructed by …); test: SPR, Biacore T200, CD47-His coupled to chip, antibody as analyte
Description: (§4) The affinities of antibodies with B2 structure and with FV1 structure were detected by Biacore T200 instrument. The specific protocols were as follows. Human PD-L1-His and human CD47-His were coupled to CMS biosensor chip (GE), and then the antibodies of different concentrations were flowed through the chip at a flow rate of 30 μL/min. The binding between the candidate antibody and antigen was performed with a binding time of 120 s and a dissociation time of 300 s. The kinetic fitting was performed using BIAevalution software (GE), and the results of affinity constants were obtained as shown in Table 2 and Table 3.

[8] = target: T4, Human PD-L1-His (human, UniProt Q9NZQ7 19-238, limits assumed); test: SPR, Biacore T200, PD-L1-His coupled to chip, antibody as analyte
T4 construct: not shown: His tag
Description: as §4

T3 sequence (Q08722 other isoform, or with tags, fused parts or gaps limits assumed): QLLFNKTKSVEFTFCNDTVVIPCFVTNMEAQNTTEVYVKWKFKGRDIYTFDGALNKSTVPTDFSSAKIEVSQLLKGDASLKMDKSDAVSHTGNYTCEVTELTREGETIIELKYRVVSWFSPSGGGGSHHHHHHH
T1 sequence (Q9NZQ7 19-238 limits assumed): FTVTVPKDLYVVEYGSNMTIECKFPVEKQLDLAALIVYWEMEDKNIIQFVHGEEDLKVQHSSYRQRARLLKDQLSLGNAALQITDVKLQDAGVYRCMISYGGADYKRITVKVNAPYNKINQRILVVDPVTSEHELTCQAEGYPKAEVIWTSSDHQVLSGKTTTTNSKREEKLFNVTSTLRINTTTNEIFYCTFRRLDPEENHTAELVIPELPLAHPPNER
T4 sequence (Q9NZQ7 19-238 limits assumed): as above
T2 sequence (Q08722 19-139 limits assumed): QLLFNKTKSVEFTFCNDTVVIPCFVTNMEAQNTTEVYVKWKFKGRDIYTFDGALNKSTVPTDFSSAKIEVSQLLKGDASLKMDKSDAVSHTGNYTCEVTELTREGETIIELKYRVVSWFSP
Sequence of Human PD-L1-mFc (constructed by GeneScience) (human) (chain, as listed by the source limits assumed): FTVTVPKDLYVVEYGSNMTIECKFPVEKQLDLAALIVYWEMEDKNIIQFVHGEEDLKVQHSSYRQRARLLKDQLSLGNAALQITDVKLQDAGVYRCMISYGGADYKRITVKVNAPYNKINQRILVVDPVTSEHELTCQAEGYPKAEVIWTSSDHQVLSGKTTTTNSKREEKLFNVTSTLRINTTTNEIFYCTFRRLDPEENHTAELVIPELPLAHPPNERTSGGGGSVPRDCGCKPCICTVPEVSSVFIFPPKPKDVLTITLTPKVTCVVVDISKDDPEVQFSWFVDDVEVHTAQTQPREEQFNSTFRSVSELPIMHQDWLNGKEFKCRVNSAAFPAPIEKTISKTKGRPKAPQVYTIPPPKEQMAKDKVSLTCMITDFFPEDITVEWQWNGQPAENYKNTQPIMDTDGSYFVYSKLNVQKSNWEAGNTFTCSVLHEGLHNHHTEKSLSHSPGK

- EC50 [3]: 1.66 µg/mL
- EC50 [4]: 1.66 µg/mL
- EC50 [5]: 0.0887 µg/mL
- EC50 [6]: 0.0887 µg/mL
- Kd [7]: 15 nM
- Kd [8]: 0.271 nM
- koff [8]: 0.000119 s⁻¹
- kon [8]: 440000 M⁻¹ s⁻¹
B2: bivalent bispecific antibody with FV1 structure (H5+L5+H6+L6) (bispecific antibody, human IgG1, kappa)
heavy 1: not shown
light 1: DIQMTQSPSSLSASVGDRVTITCSASQDVTTAVAWYQQKPGKAPKLLIYSASFPYRGVPSRFSGSGSGTDFTLTISSLQPEDFATYYCQQYMYHPSTFGQGTKVEIKRTVAAPSVFIFPPSDEQLKSGTASVVCLLNNFYPREAKVQWKVDNALQSGNSQESVTEQDSKDSTYSLSSTLTLSKADYEKHKVYACEVTHQGLSSPVTKSFNRGEC
heavy 2: not shown
light 2: DVVMTQTPLSLPVSLGDQASISCRSSQSLVHSKGNTYLHWYLQKPGQSPKLLIYRVSNRFSGVPDRFSGSGSGTDFTLKISRVEAEDLGVYFCSQSTHVPFTFGSGTKLEIKLGGC
notes: It is IgG1-based with knob-into-hole CH3 domains; also called FV1 bispecific antibody

- EC50 [5]: 0.179 µg/mL
- EC50 [6]: 0.179 µg/mL
B4: FV3 (bispecific antibody, human IgG1, kappa)
chain 1: not shown
chain 2: DIQMTQSPSSLSASVGDRVTITCSASQDVTTAVAWYQQKPGKAPKLLIYSASFPYRGVPSRFSGSGSGTDFTLTISSLQPEDFATYYCQQYMYHPSTFGQGTKVEIKRTVAAPSVFIFPPSDEQLKSGTASVVCLLNNFYPREAKVQWKVDNALQSGNSQESVTEQDSKDSTYSLSSTLTLSKADYEKHKVYACEVTHQGLSSPVTKSFNRGEC
chain 3: not shown
chain 4: DVVMTQTPLSLPVSLGDQASISCRSSQSLVHSKGNTYLHWYLQKPGQSPKLLIYRVSNRFSGVPDRFSGSGSGTDFTLKISRVEAEDLGVYFCSQSTHVPFTFGSGTKLEIKGGGGSGGGGSGGGGSASLGGC
notes: also called FV3 structure; H5+L5+H8+L8

- EC50 [5]: 0.146 µg/mL
- EC50 [6]: 0.146 µg/mL
B5: FV4 (bispecific antibody, human IgG1, kappa)
chain 1: not shown
chain 2: DIQMTQSPSSLSASVGDRVTITCSASQDVTTAVAWYQQKPGKAPKLLIYSASFPYRGVPSRFSGSGSGTDFTLTISSLQPEDFATYYCQQYMYHPSTFGQGTKVEIKRTVAAPSVFIFPPSDEQLKSGTASVVCLLNNFYPREAKVQWKVDNALQSGNSQESVTEQDSKDSTYSLSSTLTLSKADYEKHKVYACEVTHQGLSSPVTKSFNRGEC
chain 3: not shown
chain 4: DVVMTQTPLSLPVSLGDQASISCRSSQSLVHSKGNTYLHWYLQKPGQSPKLLIYRVSNRFSGVPDRFSGSGSGTDFTLKISRVEAEDLGVYFCSQSTHVPFTFGSGTKLEIKSGGGGSASLGGC
notes: also called FV4 structure; H5+L5+H9+L7

- EC50 [3]: 0.564 µg/mL
- EC50 [4]: 0.564 µg/mL
- Kd [7]: 25.8 nM
- Kd [8]: 0.109 nM
- koff [8]: 4.28e-05 s⁻¹
- kon [8]: 395000 M⁻¹ s⁻¹
B7: bivalent bispecific antibody with B2 structure (H2+L2) (bispecific antibody)
heavy: ASTKGPSVFPLAPSSKSTSGGTAALGCLVKDYFPEPVTVSWNSGALTSGVHTFPAVLQSSGLYSLSSVVTVPSSSLGTQTYICNVNHKPSNTKVDKKVEPKSCDKEVQLVESGGGLVQPGGSLRLSCAASYFPFSDSWIHWVRQAPGKGLEWVAWISPYGGSSYYADSVQDRFTISADTSKNTAYLQMNSLRAEDTAVYYCAKRHWPGGFDHWGQGTLVTVSSGGGGSGGGGSGGGGSASDIQMTQSPSSLSASVGDRVTITCSASQDVTTAVAWYQQKPGKAPKLLIYSASFPYRGVPSRFSGSGSGTDFTLTISSLQPEDFATYYCQQYMYHPSTFGQGTKVEIK
light: QVQLVQSGAEVKKPGASVKVSCKASGYTFTNYVLHWVRQAPGQRLEWMGYFNPYNDDSKYNEKFKGRVTITRDTSASTAYMELSSLRSEDTAVYYCARGGYYSMDYWGQGTLVTVSSGGGGSGGGGSGGGGSASDIVMTQTPLSLPVTPGQPASISCRASQSLAHSNGYTYLQWYLQKPGQSPQLLIYKVSKRFSGVPDRFSGSGSGTDFTLKISRVEAEDVGVYYCSQSTHVPYTFGQGTKVEIKRTVAAPSVFIFPPSDEQLKSGTASVVCLLNNFYPREAKVQWKVDNALQSGNSQESVTEQDSKDSTYSLSSTLTLSKADYEKHKVYACEVTHQGLSSPVTKSFNRGEC
notes: The two chains form a heterodimer through a CL-hinge disulfide bond, and there is no Fc; also called B2 bispecific antibody; preferred antibody B2

Further lines, the binder ahead of its results:

B1: B1 (bispecific antibody)
chain 1: ASTKGPSVFPLAPSSKSTSGGTAALGCLVKDYFPEPVTVSWNSGALTSGVHTFPAVLQSSGLYSLSSVVTVPSSSLGTQTYICNVNHKPSNTKVDKKVEPKSCDKQVQLVQSGAEVKKPGASVKVSCKASGYTFTNYVLHWVRQAPGQRLEWMGYFNPYNDDSKYNEKFKGRVTITRDTSASTAYMELSSLRSEDTAVYYCARGGYYSMDYWGQGTLVTVSSGGGGSGGGGSGGGGSASDIVMTQTPLSLPVTPGQPASISCRASQSLAHSNGYTYLQWYLQKPGQSPQLLIYKVSKRFSGVPDRFSGSGSGTDFTLKISRVEAEDVGVYYCSQSTHVPYTFGQGTKVEIK
chain 2: EVQLVESGGGLVQPGGSLRLSCAASYFPFSDSWIHWVRQAPGKGLEWVAWISPYGGSSYYADSVQDRFTISADTSKNTAYLQMNSLRAEDTAVYYCAKRHWPGGFDHWGQGTLVTVSSGGGGSGGGGSGGGGSASDIQMTQSPSSLSASVGDRVTITCSASQDVTTAVAWYQQKPGKAPKLLIYSASFPYRGVPSRFSGSGSGTDFTLTISSLQPEDFATYYCQQYMYHPSTFGQGTKVEIKRTVAAPSVFIFPPSDEQLKSGTASVVCLLNNFYPREAKVQWKVDNALQSGNSQESVTEQDSKDSTYSLSSTLTLSKADYEKHKVYACEVTHQGLSSPVTKSFNRGEC
notes: also called B1 structure; H1+L1
- EC50 (read off the curve) [1]: ~0.2 µg/mL
- EC50 (read off the curve) [2]: ~0.2 µg/mL

B3: FV2 (bispecific antibody, human IgG1, kappa)
chain 1: not shown
chain 2: DIQMTQSPSSLSASVGDRVTITCSASQDVTTAVAWYQQKPGKAPKLLIYSASFPYRGVPSRFSGSGSGTDFTLTISSLQPEDFATYYCQQYMYHPSTFGQGTKVEIKRTVAAPSVFIFPPSDEQLKSGTASVVCLLNNFYPREAKVQWKVDNALQSGNSQESVTEQDSKDSTYSLSSTLTLSKADYEKHKVYACEVTHQGLSSPVTKSFNRGEC
chain 3: not shown
chain 4: DVVMTQTPLSLPVSLGDQASISCRSSQSLVHSKGNTYLHWYLQKPGQSPKLLIYRVSNRFSGVPDRFSGSGSGTDFTLKISRVEAEDLGVYFCSQSTHVPFTFGSGTKLEIKSGGGGSASLGGC
notes: also called FV2 structure; H5+L5+H7+L7
- EC50 [5]: 0.186 µg/mL
- EC50 [6]: 0.186 µg/mL

B6: B4 (bispecific antibody)
chain 1: QVQLVQSGAEVKKPGASVKVSCKASGYTFTNYVLHWVRQAPGQRLEWMGYFNPYNDDSKYNEKFKGRVTITRDTSASTAYMELSSLRSEDTAVYYCARGGYYSMDYWGQGTLVTVSSGGGGSGGGGSGGGGSASDIVMTQTPLSLPVTPGQPASISCRASQSLAHSNGYTYLQWYLQKPGQSPQLLIYKVSKRFSGVPDRFSGSGSGTDFTLKISRVEAEDVGVYYCSQSTHVPYTFGQGTKVEIKASTKGPSVFPLAPSSKSTSGGTAALGCLVKDYFPEPVTVSWNSGALTSGVHTFPAVLQSSGLYSLSSVVTVPSSSLGTQTYICNVNHKPSNTKVDKKVEPKSCDK
chain 2: RTVAAPSVFIFPPSDEQLKSGTASVVCLLNNFYPREAKVQWKVDNALQSGNSQESVTEQDSKDSTYSLSSTLTLSKADYEKHKVYACEVTHQGLSSPVTKSFNRGECEVQLVESGGGLVQPGGSLRLSCAASYFPFSDSWIHWVRQAPGKGLEWVAWISPYGGSSYYADSVQDRFTISADTSKNTAYLQMNSLRAEDTAVYYCAKRHWPGGFDHWGQGTLVTVSSGGGGSGGGGSGGGGSASDIQMTQSPSSLSASVGDRVTITCSASQDVTTAVAWYQQKPGKAPKLLIYSASFPYRGVPSRFSGSGSGTDFTLTISSLQPEDFATYYCQQYMYHPSTFGQGTKVEIK
notes: also called B4 structure; H4+L4
- EC50 (read off the curve) [1]: ~0.09 µg/mL
- EC50 (read off the curve) [2]: ~0.09 µg/mL

From US20220073610A1 (CHANGCHUN GENESCIENCE PHARMACEUTICAL, published 2022)
